How the values were obtained:
BCMA-His antigen = molecular target: T1, BCMA-His antigen (UniProt Q02223 1-54); test: SPR, BCMA-his coupled on CM5 chip, TCP as analyte, 1:1 fit
T1 construct: also called BMCA antigen
T1 sequence (looked up): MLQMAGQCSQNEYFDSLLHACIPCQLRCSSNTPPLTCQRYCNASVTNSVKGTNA
Procedure: First the binding affinity of the purified BCMA-TCPs against BMCA antigen was assessed by SPR. BCMA-his antigen was coupled onto a CM5 chip (GE Healthcare Life Sciences), and then a variety of anti-BCMA BsAbs were flowed at the flow rate of 10 uL/min with dissociation time of 900s. Binding kinetics were determined with a 1:1 fit model.

CD19 expressed on cells = molecular target: T2, CD19 expressed on cells (UniProt P15391 20-556, limits assumed); test: flow cytometry on CHO/K1-CD19 cells; unit taken from the axis 'Conc.(nM)'; the curve is still rising at the last point (MFI about 5000 at about 400 nM)
T2 construct: whole, on cells; also called CD19 over-expression cell line; CD19 over-expressing cells
T2 sequence (looked up): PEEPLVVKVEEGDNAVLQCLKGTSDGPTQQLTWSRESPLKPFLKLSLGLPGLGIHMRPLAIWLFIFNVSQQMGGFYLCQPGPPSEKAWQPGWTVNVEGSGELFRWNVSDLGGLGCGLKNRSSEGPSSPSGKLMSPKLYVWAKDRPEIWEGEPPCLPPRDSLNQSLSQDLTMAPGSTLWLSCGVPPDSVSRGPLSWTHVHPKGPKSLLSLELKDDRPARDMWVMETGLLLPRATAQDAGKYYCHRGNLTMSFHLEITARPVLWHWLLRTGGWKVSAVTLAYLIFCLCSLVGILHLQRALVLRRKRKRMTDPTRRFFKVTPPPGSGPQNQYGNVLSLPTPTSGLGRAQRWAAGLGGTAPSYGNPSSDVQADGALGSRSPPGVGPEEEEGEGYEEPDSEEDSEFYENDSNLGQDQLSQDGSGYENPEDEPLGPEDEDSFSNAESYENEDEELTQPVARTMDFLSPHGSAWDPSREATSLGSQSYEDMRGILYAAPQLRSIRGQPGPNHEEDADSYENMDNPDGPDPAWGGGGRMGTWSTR

[1] = molecular target: mesothelin (MSLN) expressed on cells (UniProt Q13421); test: flow cytometry on 293T-MSLN-Full cells; unit taken from the axis 'Conc.(nM)'
[2] = molecular target: mesothelin (MSLN) expressed on cells (UniProt Q13421); test: flow cytometry on 293T-MSLN+ cells; unit taken from the axis 'Conc.(nM)'
[3] = molecular target: mesothelin (MSLN) expressed on cells (UniProt Q13421); test: flow cytometry on HEK293T-MSLN cells, serial dilution, anti-human IgG PE detection
MSLN-His antigen [4] = molecular target: T3, MSLN-His antigen (UniProt Q13421 296-580, limits assumed); test: SPR (Biacore), VHH-hFc captured on protein A chip, MSLN-His as analyte
T3 construct: also called MSLN-His protein; MSLN antigen
Procedure: The antibody was expressed as a hFc fusion protein, named as M2339(VHH) with the procedure that was described in the patent publication WO2020176815A2 (hereby incorporated by reference in its entirety and for all purposes). The binding affinity of M2339(VHH) towards MSLN antigen was tested by surface plasmon resonance (SPR). First, M2339(VHH) was passed through the sensor chip with protein A immobilized in advance, and the antibody was captured by protein A. Then, five different concentrations of MSLN-His protein were used as the mobile phase, and the binding time and dissociation time were 30 min and 60 min, respectively. Biacore evaluation software 2.0 (GE) was used to analyze the on-rate (kₒₙ), off-rate (koff) and equilibrium constant (KD).

MSLN I - Fc = molecular target: T4, MSLN I - Fc (UniProt Q13421 296-390, limits assumed); test: SPR, MSLN domain-Fc captured on protein A chip, M2339 VHH-6his as analyte, 1:1 fit
T4 construct: domain: MSLN I; also called mesothelinI; not shown: human Fc
Procedure: (§1) Affinity was determined by SPR. Protein A chip was used to capture different antigens, various concentrations of M2339(VHH) were injected at a flow rate of 10 μl/min with an association time of 120 to 180 seconds and a dissociation time from 180 to 1200 seconds. Binding kinetics were determined using Biacore Evaluation software in a 1:1 fit model.

MSLN II + III - Fc = molecular target: T5, MSLN II + III - Fc (Homo sapiens (Human), UniProt Q13421 391-598); test: as above
T5 construct: also called mesothelinII+III; mesothelinII+III domain; not shown: human Fc
Procedure: as §1

MSLN I + II - Fc = molecular target: T6, MSLN I + II - Fc (UniProt Q13421 296-486, limits assumed); test: as above
T6 construct: domain: MSLN I + II; not shown: human Fc
Procedure: as §1

MSLN III - Fc = molecular target: T7, MSLN III - Fc (UniProt Q13421 487-598, limits assumed); test: as above
T7 construct: domain: MSLN III; not shown: human Fc
Procedure: as §1

MSLN Full - Fc = molecular target: T8, MSLN Full - Fc (UniProt Q13421 296-598, limits assumed); test: as above
T8 construct: domain: MSLN Full (mesothelin ECD); also called mesothelin-full; complete mesothelin polypeptide; not shown: human Fc
Procedure: as §1

MSLN II - Fc = molecular target: T9, MSLN II - Fc (UniProt Q13421 391-486, limits assumed); test: as above
T9 construct: domain: MSLN II; not shown: human Fc
Procedure: as §1

BCMA expressed on cells = molecular target: T10, BCMA expressed on cells (UniProt Q02223 1-184, limits assumed); test: flow cytometry on CHOK1-BCMA+ cells; unit taken from the axis 'Conc.(nM)'
T10 construct: whole, on cells; also called CHOK1-BCMA cell line; BCMA over-expression cell line
T10 sequence (looked up): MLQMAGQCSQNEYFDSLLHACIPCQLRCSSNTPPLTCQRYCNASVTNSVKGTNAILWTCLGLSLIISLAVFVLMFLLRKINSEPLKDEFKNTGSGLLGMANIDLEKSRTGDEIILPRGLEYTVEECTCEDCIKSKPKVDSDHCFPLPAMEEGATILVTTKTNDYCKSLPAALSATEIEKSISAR
Procedure: The binding bioactivity for mesothelin and BCMA over-expressing cells was evaluated by flow cytometry. Stable cell lines were harvested using 0.25% Trypsin.
About 5E5 cells were collected per sample, and the cells were resuspended in 100 μL/well tested antibodies with His-tag. Then the cells were incubated with anti-His-tag antibody (Genscript, China) and Streptavidin-PE (Biolegend, China). The incubation step of each step was performed at 4° C. in the dark for 1 hr, and then the cells were washed 2× with 200 μL PBS buffer. The washed cells were resuspended in 200 μL PBS buffer and the sample was analyzed by FACS.

MSLN-His antigen [5] = molecular target: T3, MSLN-His antigen; test: SPR as in Example 2, MSLN His antigen
[6] = molecular target: mesothelin (MSLN) expressed on cells (UniProt Q13421); test: flow cytometry on HEK293T-MSLN cells, serial dilution

T4 sequence (Q13421 296-390 limits assumed): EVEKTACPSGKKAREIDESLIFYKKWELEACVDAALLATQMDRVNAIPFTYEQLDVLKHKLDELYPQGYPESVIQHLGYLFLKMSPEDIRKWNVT
T5 sequence (Q13421 other isoform, or with tags, fused parts or gaps limits assumed): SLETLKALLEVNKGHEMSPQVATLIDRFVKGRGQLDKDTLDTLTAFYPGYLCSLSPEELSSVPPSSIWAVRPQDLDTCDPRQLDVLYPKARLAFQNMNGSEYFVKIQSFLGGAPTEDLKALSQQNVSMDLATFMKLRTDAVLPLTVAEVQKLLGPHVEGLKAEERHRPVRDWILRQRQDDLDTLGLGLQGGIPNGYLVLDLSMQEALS
T3 sequence (Q13421 other isoform, or with tags, fused parts or gaps limits assumed): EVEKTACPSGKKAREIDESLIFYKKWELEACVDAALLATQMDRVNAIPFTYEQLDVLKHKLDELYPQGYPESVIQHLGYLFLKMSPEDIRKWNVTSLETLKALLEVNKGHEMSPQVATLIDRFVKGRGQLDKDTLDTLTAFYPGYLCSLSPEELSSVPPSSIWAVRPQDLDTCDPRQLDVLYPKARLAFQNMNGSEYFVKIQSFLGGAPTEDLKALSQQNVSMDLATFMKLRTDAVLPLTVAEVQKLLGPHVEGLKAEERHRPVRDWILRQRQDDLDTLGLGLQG
Chain of mesothelin (MSLN) expressed on cells (Q13421 other isoform, or with tags, fused parts or gaps limits assumed): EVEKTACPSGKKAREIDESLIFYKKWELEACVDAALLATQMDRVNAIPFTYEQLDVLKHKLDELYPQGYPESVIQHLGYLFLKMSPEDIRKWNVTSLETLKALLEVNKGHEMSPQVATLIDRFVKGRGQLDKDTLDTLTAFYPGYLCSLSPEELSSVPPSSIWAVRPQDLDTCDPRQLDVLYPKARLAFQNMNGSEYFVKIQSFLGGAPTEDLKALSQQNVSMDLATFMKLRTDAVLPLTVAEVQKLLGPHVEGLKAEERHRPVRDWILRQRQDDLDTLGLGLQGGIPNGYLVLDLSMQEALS
T9 sequence (Q13421 other isoform, or with tags, fused parts or gaps limits assumed): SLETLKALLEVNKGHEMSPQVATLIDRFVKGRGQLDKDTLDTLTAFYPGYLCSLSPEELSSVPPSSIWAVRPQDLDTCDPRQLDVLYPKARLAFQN
T7 sequence (Q13421 495-606 limits assumed): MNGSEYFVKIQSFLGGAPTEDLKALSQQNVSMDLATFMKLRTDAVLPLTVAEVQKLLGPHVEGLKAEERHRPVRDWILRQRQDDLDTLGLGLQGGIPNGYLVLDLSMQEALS
T6 sequence (Q13421 other isoform, or with tags, fused parts or gaps limits assumed): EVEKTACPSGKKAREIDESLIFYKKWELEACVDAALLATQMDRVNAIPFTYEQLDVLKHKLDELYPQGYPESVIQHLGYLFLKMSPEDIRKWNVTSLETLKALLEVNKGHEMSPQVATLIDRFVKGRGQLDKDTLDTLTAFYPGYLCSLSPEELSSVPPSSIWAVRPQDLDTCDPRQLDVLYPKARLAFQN

B1: TCP001-P (bispecific antibody)
chain: QLQLGASGGGLVQPGGSLRLSCALSGFTLRELDEFAIGWFRQAPGKEREGVSCISGTGGITHYADSVKGRFTISRDIAKTTVYLQMNSLNSEDTAVYYCAADERCTDRLIRPPTYWGQGTQVTVSSGGGGSGGGGSGGGGSDIVLTQSPASLAMSLGERATISCRASESVSVIGAHLIHWYQQKPGQPPKLLIYLASNLETGVPARFSGSGSGTDFTLTISRVQAEDAAIYSCLQSRIFPRTFGQGTKLEIKGSTSGSGKPGSGEGSTKGQVQLVQSGSELKKPGESVKISCKASGYTFTDYSINWVKQAPGQGLKWMGWINTETREPAYAYDFRGRFVFSLDTSASTAYLQISSLKAEDTAVYFCALDYSYAMDYWGQGTLVTVSSGGGGSEQKLISEEDLGGGGSHHHHHH
notes: Positive control in TCP format
Kd (BCMA-His antigen): 0.0151 nM | koff (BCMA-His antigen): 1.25e-05 s⁻¹ | kon (BCMA-His antigen): 825000 M⁻¹ s⁻¹

B2: TCP011-P (bispecific antibody)
chain: QLQLGASGGGLVQPGGSLRLSCALSGFTLRELDEFAIGWFRQAPGKEREGVSCISGTGGITHYADSVKGRFTISRDIAKTTVYLQMNSLNSEDTAVYYCAADERCTDRLIRPPTYWGQGTQVTVSSGGGGSGGGGSGGGGSDIQMTQTTSSLSASLGDRVTISCRASQDISKYLNWYQQKPDGTVKLLIYHTSRLHSGVPSRFSGSGSGTDYSLTISNLEQEDIATYFCQQGNTLPYTFGGGTKLEITKAGGGGSGGGGSGGGGSEVKLQESGPGLVAPSQSLSVTCTVSGVSLPDYGVSWIRQPPRKGLEWLGVIWGSETTYYNSALKSRLTIIKDNSKSQVFLKMNSLQTDDTAIYYCAKHYYYGGSYAMDYWGQGTSVTVSSGGGGSEQKLISEEDLGGGGSHHHHHH
notes: also called CD19-TCP; anti-M-ICAP VHH (M2339) - 3xGGGGS linker - anti-CD19 scFv (FMC063) - Myc and HIS
EC50 (CD19 expressed on cells): 40.9 nM | EC50 [1]: 17.1 nM

B3: TCP-MD (VHH)
VHH: QLQLGASGGGLVQPGGSLRLSCALSGFTLRELDEFAIGWFRQAPGKEREGVSCISGTGGITHYADSVKGRFTISRDIAKTTVYLQMNSLNSEDTAVYYCAADERCTDRLIRPPTYWGQGTQVTVSS
EC50 [2]: 10.5 nM

B4: M2339(VHH), expressed as a hFc fusion protein (Fc fusion)
chain: B3 VHH
notes: VHH fused to human Fc; also called M2339-hFc; M2339-IgG1; not shown: human Fc (hFc)
EC50 (read off the curve) [3]: 4 nM | Kd (MSLN-His antigen [4]): 0.264 nM | koff (MSLN-His antigen [4]): 1.82e-05 s⁻¹ | kon (MSLN-His antigen [4]): 69000 M⁻¹ s⁻¹

B5: M2339 VHH-6his (VHH)
VHH: B3 VHH
notes: not shown: 6xHis tag
Kd (MSLN I - Fc): 0.179 nM | koff (MSLN I - Fc): 6.49e-05 s⁻¹ | kon (MSLN I - Fc): 363000 M⁻¹ s⁻¹ | Kd (MSLN II + III - Fc): 0.0432 nM | koff (MSLN II + III - Fc): 1.96e-05 s⁻¹ | kon (MSLN II + III - Fc): 454000 M⁻¹ s⁻¹ | Kd (MSLN I + II - Fc): 0.366 nM | koff (MSLN I + II - Fc): 0.000174 s⁻¹ | kon (MSLN I + II - Fc): 476000 M⁻¹ s⁻¹ | Kd (MSLN III - Fc): 0.327 nM | koff (MSLN III - Fc): 0.000185 s⁻¹ | kon (MSLN III - Fc): 566000 M⁻¹ s⁻¹ | Kd (MSLN Full - Fc): 0.0165 nM | koff (MSLN Full - Fc): 1.36e-05 s⁻¹ | kon (MSLN Full - Fc): 823000 M⁻¹ s⁻¹ | Kd (MSLN II - Fc): 0.999 nM | koff (MSLN II - Fc): 0.000244 s⁻¹ | kon (MSLN II - Fc): 244000 M⁻¹ s⁻¹

B6: TCP001-C (bispecific antibody)
chain: QLQLGASGGGLVQPGGSLRLSCALSGFTLRELDEFAIGWFRQAPGKEREGVSCISGTGGITHYADSVKGRFTISRDIAKTTVYLQMNSLNSEDTAVYYCAADERCTDRLIRPPTYWGQGTQVTVSSGGGGSGGGGSGGGGSQVQLVESGGGLVQPGGSLRLSCAASGSITSIYAIGWYRQAPGKLRELVAAITTSGNTFYRDSVKGRFTISRDNAKNTVSLQMNSLKSEDTAVYDCNGAPWGDHAPLVVSWDQGTQVTVSSGGGGSEQKLISEEDLGGGGSHHHHHH
notes: also called BCMA-TCP
Kd (BCMA-His antigen): 0.587 nM | koff (BCMA-His antigen): 0.000518 s⁻¹ | kon (BCMA-His antigen): 882000 M⁻¹ s⁻¹ | EC50 (BCMA expressed on cells): 17.6 nM | EC50 [2]: 13.4 nM

B7: anti-MSLN-1444 VHH (Fc fusion, not shown: a dimerising Fc or GST)
chain: QVQVVESGGGFVQAGGSLRLSCAASTPIISIAYMGWYRQISEKERQLVATINSGGKTYYADSVKGRFTISRDNAKNTLYLQMNMLKPEDTGMYYCAASNKDYNDYDPDWGQGTQVTVSS
Kd (MSLN-His antigen [5]): 2.1 nM | koff (MSLN-His antigen [5]): 7.5e-05 s⁻¹ | kon (MSLN-His antigen [5]): 53700 M⁻¹ s⁻¹ | EC50 (read off the curve) [6]: 10 nM

B8: TCP-MC (VHH)
VHH: QVQLVESGGGLVQPGGSLRLSCAASGSITSIYAIGWYRQAPGKLRELVAAITTSGNTFYRDSVKGRFTISRDNAKNTVSLQMNSLKSEDTAVYDCNGAPWGDHAPLVVSWDQGTQVTVSS
notes: also called MC001C
Kd (BCMA-His antigen): 0.138 nM | koff (BCMA-His antigen): 0.000546 s⁻¹ | kon (BCMA-His antigen): 3.96e+06 M⁻¹ s⁻¹

B9: TCP003-C (bispecific antibody)
chain: QLQLGASGGGLVQPGGSLRLSCALSGFTLRELDEFAIGWFRQAPGKEREGVSCISGTGGITHYADSVKGRFTISRDIAKTTVYLQMNSLNSEDTAVYYCAADERCTDRLIRPPTYWGQGTQVTVSSGGGGSAAAGQPREPQVYTLPPSQEEMTKNQVSLTCLVKGFYPSDIAVEWESNGQPENNYKTTPPVLDSDGSFFLYSRLTVDKSRWQEGNVFSCSVMHEALHNHYTQKSLSLSLGKGGGGSGGGGSGGGGSQVQLVESGGGLVQPGGSLRLSCAASGSITSIYAIGWYRQAPGKLRELVAAITTSGNTFYRDSVKGRFTISRDNAKNTVSLQMNSLKSEDTAVYDCNGAPWGDHAPLVVSWDQGTQVTVSSGGGGSEQKLISEEDLGGGGSHHHHHH
notes: also called TCP0031-C (as misprinted); BCMA-TCP
Kd (BCMA-His antigen): 7.04 nM | koff (BCMA-His antigen): 0.000298 s⁻¹ | kon (BCMA-His antigen): 42300 M⁻¹ s⁻¹ | EC50 (BCMA expressed on cells): 22.3 nM | EC50 [2]: 4.32 nM
